We go through 5 molecules from US20110318347A1.

The target of assay [1] is human CXCR4 (human). In words: competition vs [125I]-CXCL12, membranes of HEK293T cells expressing CXCR4.
In assay [2] the target is human CXCR4 (human). In words: competition vs [125I]-CXCL12; potency relative to monovalent 238D2.
The target of assay [3] is human CXCR4 (human). In words: competition vs [125I]-238D2 (3 nM), membranes of HEK293T cells expressing CXCR4; Table B-3 competition vs [125I]-238D2, up to 0.5 µM; bound only.
The target in assay [4] is human CXCR4 (human). Nature of the assay: periplasmic fraction (1:10), displacement of [125I]-CXCL12, HEK293T-CXCR4 membranes; - = 0-29%, + = 30-69%, ++ = 70-100%; screening of clones (Table B-2): 30-69% displacement of [125I]-CXCL12, HEK293T-CXCR4 membranes.
The target of assay [5] is human CXCR4 (human). Nature of the assay: competition vs [125I]-238D4 (3 nM), membranes of HEK293T cells expressing CXCR4; Table B-3 competition vs [125I]-238D4, up to 0.5 µM; bound only.
Assay [6] concerns the target human CXCR4 (human). Nature of the assay: competition vs [125I]-238D2 (3 nM), membranes of HEK293T cells expressing CXCR4; Table B-3 competition vs [125I]-238D2, at 0.5 µM: no displacement.
The target in assay [7] is human CXCR4 (human). In words: competition vs [125I]-CXCL12 (40 pM), membranes of HEK293T cells expressing CXCR4; Table B-3 competition vs [125I]-CXCL12, up to 0.5 µM; bound only.
Assay [8] addresses human CXCR4 (human). Nature of the assay: competition vs [125I]-238D4 (3 nM), membranes of HEK293T cells expressing CXCR4; Table B-3 competition vs [125I]-238D4, at 0.5 µM: no displacement.
Assay [9] concerns the target human CXCR4 (human). Nature of the assay: competition vs [125I]-CXCL12; potency relative to monovalent 238D4.
Assay [10] addresses human CXCR4 (human).
The target of a further assay is CCR5 (UniProt P51681). Nature of the assay: cell-based or functional assay.
Assay [11] has as its target human CXCR4 (human). In words: cell-based or functional assay.
The target of assay [12] is human CXCR4 (human). In words: competition with [125I]-CXCL12 on HEK293T-CXCR4 membranes.

CCR5, sequence (P51681 whole entry): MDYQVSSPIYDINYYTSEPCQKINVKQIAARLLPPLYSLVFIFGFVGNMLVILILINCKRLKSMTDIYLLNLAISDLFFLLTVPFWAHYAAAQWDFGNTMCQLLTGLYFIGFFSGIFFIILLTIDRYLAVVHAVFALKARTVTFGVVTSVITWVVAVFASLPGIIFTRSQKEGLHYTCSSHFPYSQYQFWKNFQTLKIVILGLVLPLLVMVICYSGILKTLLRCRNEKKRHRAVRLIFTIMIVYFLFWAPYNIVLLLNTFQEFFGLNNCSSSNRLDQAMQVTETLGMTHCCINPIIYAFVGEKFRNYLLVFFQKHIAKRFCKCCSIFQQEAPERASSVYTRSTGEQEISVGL

B1: 238D2-10GS-238D2 (VHH)
chain: EVQLVESGGGLVQTGGSLRLSCAASGFTFSSYAMSWVRQAPGKGLEWVSGIKSSGDSTRYAGSVKGRFTISRDNAKNMLYLQMYSLKPEDTAVYYCAKSRVSRTGLYTYDNRGQGTQVTVSSGGGGSGGGGSEVQLVESGGGLVQTGGSLRLSCAASGFTFSSYAMSWVRQAPGKGLEWVSGIKSSGDSTRYAGSVKGRFTISRDNAKNMLYLQMYSLKPEDTAVYYCAKSRVSRTGLYTYDNRGQGTQVTVSS
Take B1: in the assay with human CXCR4 (human) [1], the Displacem. (%) was 95% and the negative logarithm of the Ki (pKi) worked out at 9.16. This molecule registered a Rel. potency with human CXCR4 (human) [2] of 14 fold.

B2: Nanobody 237A6 (VHH)
VHH: EVQLVESGGGLVQAGGSLRLSCAASGSIFSLNAMGWYRQAPGKQRELVAGITSSTSTYYADSVKGRFTISRDNTKNTVYLQMNSLKPEDTAVYYCNVDCPDYYSDYECPLEDRGQGTQVTVSS
As for B2, the pKi with human CXCR4 (human) [3], with human CXCR4 (human) [5] and with human CXCR4 (human) [7] was less than 6.3 in each case. Also, in the assay with human CXCR4 (human) [4], the percent inhibition of specific [125I]-CXCL12 binding lay within 30 to 69%. For the same molecule, the Displacem. (%) with human CXCR4 (human) [6] and with human CXCR4 (human) [8] was 0% each time.

B3: 238D2-15GS-238D4 (VHH)
chain: EVQLVESGGGLVQTGGSLRLSCAASGFTFSSYAMSWVRQAPGKGLEWVSGIKSSGDSTRYAGSVKGRFTISRDNAKNMLYLQMYSLKPEDTAVYYCAKSRVSRTGLYTYDNRGQGTQVTVSSGGGGSGGGGSGGGGSEVQLMESGGGLVQAGGSLRLSCAASGRTFNNYAMGWFRRAPGKEREFVAAITRSGVRSGVSAIYGDSVKDRFTISRDNAKNTLYLQMNSLKPEDTAVYTCAASAIGSGALRRFEYDYSGQGTQVTVSS
In the assay with human CXCR4 (human) [1], B3 returned a Displacem. (%) of 92% and a pKi of 9.45. The same molecule gave a Rel. potency with human CXCR4 (human) [2] of 28 fold. Further, in the assay with human CXCR4 (human) [9], the Rel. potency worked out at 17 fold. This molecule came in with an IC50 (read off the curve), migration of Jurkat cells towards 0.3 nM CXCL12 with human CXCR4 (human) [10] of 0.3 nM. For the same molecule, in the assay with CCR5, the Anti-HIV-1 activity (in nM), PBMC/BaL is more than 100 nM; the Anti-HIV-1 activity (in nM), U87.CD4.CCR5/BaL was more than 100 nM; the IC50, HIV-1 BaL, PBMC donor 1 is more than 1 µg/mL; the IC50, HIV-1 BaL, PBMC donor 2 was more than 1 µg/mL. In the assay with CCR5, this molecule showed an IC90, HIV-1 BaL, PBMC donor 1 of more than 1 µg/mL; an IC90, HIV-1 BaL, PBMC donor 2 of more than 1 µg/mL; a nM IC50, HIV-1 BAL, PBMC donor 1 of more than 67 nM; a nM IC50, HIV-1 BAL, PBMC donor 2 of more than 67 nM. In the assay with human CXCR4 (human) [11], this molecule showed an Anti-HIV-1 activity (in nM), MT-4/HE of 0.16 nM; an Anti-HIV-1 activity (in nM), MT-4/NL4.3 of 0.25 nM; an Anti-HIV-1 activity (in nM), PBMC/HE of 1.5 nM; an Anti-HIV-1 activity (in nM), PBMC/NL4.3 of 0.5 nM. Further, in the assay with human CXCR4 (human) [11], the Anti-HIV-1 activity (in nM), U87.CD4.CXCR4/NL4.3 was found to be 0.36 nM; the Chemotaxis, Jurkat/0.3 nM CXCL12, Imax (%) turned out to be 107%; the Chemotaxis, Jurkat/0.3 nM CXCL12, pKi or pIC50 is 9.86; the IC50, HIV-1 NL4.3, MT-4 cells, exp. 1 was found to be 0.0166 µg/mL. In the assay with human CXCR4 (human) [11], this molecule returned an IC50, HIV-1 NL4.3, PBMC donor 1 of 0.01 µg/mL; an IC50, HIV-1 NL4.3, PBMC donor 2 of 0.0179 µg/mL; an IC50, HIV-1 UG270, PBMC donor 1 of 0.0212 µg/mL; an IC50, HIV-1 UG270, PBMC donor 2 of 0.0894 µg/mL. In the assay with human CXCR4 (human) [11], this molecule showed an IC90, HIV-1 NL4.3, MT-4 cells, exp. 1 of 0.0711 µg/mL; an IC90, HIV-1 NL4.3, PBMC donor 1 of 0.11 µg/mL; an IC90, HIV-1 NL4.3, PBMC donor 2 of 0.0341 µg/mL; an IC90, HIV-1 UG270, PBMC donor 1 of 0.0789 µg/mL. For the same molecule, in the assay with human CXCR4 (human) [11], the IC90, HIV-1 UG270, PBMC donor 2 was 0.17 µg/mL; the nM IC50, HIV-1 NL4.3, PBMC donor 1 amounted to 0.33 nM; the nM IC50, HIV-1 NL4.3, PBMC donor 2 came to 0.6 nM; the nM IC50, HIV-1 UG270, PBMC donor 1 is 0.71 nM. Besides, the nM IC50, HIV-1 UG270, PBMC donor 2 with human CXCR4 (human) [11] was found to be 2.98 nM. Besides, in the assay with human CXCR4 (human) [12], the IC50 (read off the curve) is 0.5 nM.

B4: Nanobody 237D1 (VHH)
VHH: EVQLVESGGGLAQPGGPLRLTCEASGVIYSVNDMGWYRQAPGKQRELVAVITSGGGTNYVDSVKGRFTISGDNRKKTVYLQMNSLKPEDTAVYYCSIYYSSGISTLRSWGQGTQVTVSS
For B4, the pKi in the assay with human CXCR4 (human) [3], in the assay with human CXCR4 (human) [5] and in the assay with human CXCR4 (human) [7] was less than 6.3 in each case. Moreover, the percent inhibition of specific [125I]-CXCL12 binding with human CXCR4 (human) [4] is 30 to 69%. For the same molecule, the Displacem. (%) in the assay with human CXCR4 (human) [6] and with human CXCR4 (human) [8] was 0% each time.

B5: 238D2-20GS-238D4 (VHH)
chain: EVQLVESGGGLVQTGGSLRLSCAASGFTFSSYAMSWVRQAPGKGLEWVSGIKSSGDSTRYAGSVKGRFTISRDNAKNMLYLQMYSLKPEDTAVYYCAKSRVSRTGLYTYDNRGQGTQVTVSSGGGGSGGGGSGGGGSGGGGSEVQLMESGGGLVQAGGSLRLSCAASGRTFNNYAMGWFRRAPGKEREFVAAITRSGVRSGVSAIYGDSVKDRFTISRDNAKNTLYLQMNSLKPEDTAVYTCAASAIGSGALRRFEYDYSGQGTQVTVSS
In the case of B5, in the assay with human CXCR4 (human) [1], the Displacem. (%) turned out to be 103% and the pKi came to 9.44. In the assay with human CXCR4 (human) [2], this molecule had a Rel. potency of 27 fold. The molecule further showed a Rel. potency with human CXCR4 (human) [9] of 17 fold. In the assay with human CXCR4 (human) [10], this molecule showed an IC50 (read off the curve), migration of Jurkat cells towards 0.3 nM CXCL12 of 0.2 nM. In the assay with CCR5, the Anti-HIV-1 activity (in nM), PBMC/BaL was more than 100 nM; the Anti-HIV-1 activity (in nM), U87.CD4.CCR5/BaL is more than 100 nM; the IC50, HIV-1 BaL, PBMC donor 1 was more than 1 µg/mL; the IC50, HIV-1 BaL, PBMC donor 2 was more than 1 µg/mL. In addition, in the assay with CCR5, the IC90, HIV-1 BaL, PBMC donor 1 was more than 1 µg/mL; the IC90, HIV-1 BaL, PBMC donor 2 was more than 1 µg/mL; the nM IC50, HIV-1 BAL, PBMC donor 1 is more than 67 nM; the nM IC50, HIV-1 BAL, PBMC donor 2 was more than 67 nM. Besides, in the assay with human CXCR4 (human) [11], the Anti-HIV-1 activity (in nM), MT-4/NL4.3 turned out to be 0.25 nM; the Anti-HIV-1 activity (in nM), PBMC/HE was determined as 2.3 nM; the Anti-HIV-1 activity (in nM), PBMC/NL4.3 was 0.2 nM; the Anti-HIV-1 activity (in nM), U87.CD4.CXCR4/NL4.3 stood at 0.35 nM. For the same molecule, in the assay with human CXCR4 (human) [11], the Chemotaxis, Jurkat/0.3 nM CXCL12, Imax (%) is 100%; the Chemotaxis, Jurkat/0.3 nM CXCL12, pKi or pIC50 stood at 10.2; the IC50, HIV-1 NL4.3, MT-4 cells, exp. 1 turned out to be 0.0069 µg/mL; the IC50, HIV-1 NL4.3, PBMC donor 1 turned out to be 0.0182 µg/mL. In addition, in the assay with human CXCR4 (human) [11], the IC50, HIV-1 NL4.3, PBMC donor 2 stood at 0.0092 µg/mL; the IC50, HIV-1 UG270, PBMC donor 1 turned out to be 0.0242 µg/mL; the IC50, HIV-1 UG270, PBMC donor 2 was 0.0831 µg/mL; the IC90, HIV-1 NL4.3, MT-4 cells, exp. 1 was found to be 0.0238 µg/mL. In the assay with human CXCR4 (human) [11], the IC90, HIV-1 NL4.3, PBMC donor 1 is 0.0972 µg/mL; the IC90, HIV-1 NL4.3, PBMC donor 2 turned out to be 0.0731 µg/mL; the IC90, HIV-1 UG270, PBMC donor 1 turned out to be 0.139 µg/mL; the IC90, HIV-1 UG270, PBMC donor 2 is 0.168 µg/mL. Further, in the assay with human CXCR4 (human) [11], the nM IC50, HIV-1 NL4.3, PBMC donor 1 turned out to be 0.61 nM; the nM IC50, HIV-1 NL4.3, PBMC donor 2 was 0.31 nM; the nM IC50, HIV-1 UG270, PBMC donor 1 is 0.81 nM; the nM IC50, HIV-1 UG270, PBMC donor 2 was determined as 2.77 nM. The same molecule displayed an IC50 (read off the curve) in the assay with human CXCR4 (human) [12] of 0.5 nM.
